Source: the supplement of paper PMC9732359
± gives the uncertainty stated by the source.

Assay: protein stability index of a GFP-peptide fusion (yeast GPS) (PSI 1-4); higher = more stable; sorted into four equal gates, so the index is relative within each strain
Outline: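 For each peptide, the protein stability index sums the read frequency in every gate after multiplying it by the gate number. Read frequencies came from plasmids that were PCR-amplified from each gate and Illumina-sequenced, with reads assigned to strains by barcodes. The gates were four equal bins of GFP/Cherry fluorescence ratio applied to mid-log yeast in leucine-free medium carrying a pooled library of tiled 17-residue yeast protein peptides fused downstream of GFP on a Cherry-expressing plasmid.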

Sequence | protein stability index (doa10∆) | protein stability index (pdr5∆) | protein stability index (san1∆) | protein stability index (ubr1∆)
EDHDVHSNESSNETIGE [IRR1] | 3 ± 0.079 | 3.2 ± 0.086 | 3.28 ± 0.058 | 3.06 ± 0.075
TISKESTPDQRKRVYNI [ESC2] | 2.92 ± 0.15 | 3.16 ± 0.24 | 3.11 ± 0.17 | 3.01 ± 0.099
SCKDSQLKWAQNTIDDT [YIL149C/MLP2] | 2.15 ± 0.042 | 2.89 ± 0.057 | 2.65 ± 0.046 | 2.74 ± 0.053
CSIEPIAAKLINSGLYS [YML103C/NUP188] | 1.77 ± 0.066 | 1.29 ± 0.065 | 1.67 ± 0.12 | 1.19 ± 0.062
YTYLYVRMLASPMLYKV [BRR2] | 1.13 ± 0.12 | 1.19 ± 0.21 | 1.22 ± 0.21 | 1.26 ± 0.11
VEAQSHRLTLEDPVTVE [PRE6] | 3.23 ± 0.15 | 3.88 ± 0.25 | – | –
PAPINSLSRDFVMKTRR [SNU114] | 3.15 ± 0.081 | 2.95 ± 0.064 | 2.97 ± 0.049 | 3.15 ± 0.051
EGNAGGDQKTSENRNNI [YOR098C/NUP1] | – | 3.6 ± 0.17 | 3.19 ± 0.17 | 3.36 ± 0.074
TTGSIFEKDLMAYFDEN [BRN1] | 2.83 ± 0.055 | 3.15 ± 0.055 | 3.17 ± 0.043 | 3.13 ± 0.033
TKAVEFSMGHIRSSSVS [MED4] | 3.26 ± 0.12 | 3.38 ± 0.093 | 3.18 ± 0.078 | 2.99 ± 0.078
ERVMKNKVEENLEGLYL [RPT2] | 3.12 ± 0.11 | 3.28 ± 0.067 | 3.07 ± 0.14 | 3.35 ± 0.12
FVYNKVNETEAILYTKP [YGR119C/NUP57] | 2.76 ± 0.084 | 3.06 ± 0.072 | 2.74 ± 0.056 | 2.97 ± 0.07
NDHSKSANPKKTTITRV [SWI3] | 2.9 ± 0.11 | 3.09 ± 0.092 | 3.14 ± 0.08 | 2.97 ± 0.051
IKEKVQFNATINPESRE [ITC1] | 1.67 ± 0.046 | 1.6 ± 0.044 | 1.97 ± 0.073 | 2.07 ± 0.037
SKWFNLEKIHSIEVQSL [SWI3] | 2.67 ± 0.24 | 2.45 ± 0.13 | 1.59 ± 0.14 | 2.72 ± 0.12
KTQCPNYDTCGGESAYF [RPC11] | 3.21 ± 0.16 | 2.81 ± 0.26 | 3.24 ± 0.073 | 2.94 ± 0.15
DSVILASSKAVTRGISV [PRE1] | 2.14 ± 0.045 | 2.42 ± 0.048 | 2.28 ± 0.056 | 2.34 ± 0.041
DAWVSAAHYNRERIKRG [PRP8] | 2.76 ± 0.13 | 1.81 ± 0.099 | 2.6 ± 0.062 | 1.96 ± 0.15
IDAMKAVAEAYNNRSLL [RPN6] | 1.7 ± 0.061 | 2.07 ± 0.068 | 2.28 ± 0.095 | 1.79 ± 0.067
LNLTGPKVPEDIYKSHL [RPN1] | 2.9 ± 0.15 | 3.11 ± 0.11 | 2.85 ± 0.1 | 2.9 ± 0.26
DIPPPAIMKPYYLWTGK [RPO31] | 2.74 ± 0.068 | 2.77 ± 0.075 | 2.9 ± 0.074 | 2.79 ± 0.047
DRNNSTNQIFQSRRYNL [SIN4] | 2.78 ± 0.047 | 2.93 ± 0.049 | 2.71 ± 0.053 | 2.83 ± 0.039
IASTEKPENKTDKVSLS [SIR4] | 3.21 ± 0.069 | 3.1 ± 0.09 | 3.17 ± 0.067 | 2.89 ± 0.088
LSNSNRFELHGDMTNSD [REC8] | 2.82 ± 0.14 | 3.13 ± 0.16 | 2.58 ± 0.14 | 2.7 ± 0.2
LFHFEEDEGEELTDEYL [PRP8] | 3.52 ± 0.14 | 3.01 ± 0.09 | 3.44 ± 0.06 | 3 ± 0.12

Sequence | protein stability index (doa10∆) | protein stability index (pdr5∆) | protein stability index (san1∆) | protein stability index (ubr1∆)
TNTFEGSGNNNEIESRQ [SNU114] | – | 3.48 ± 0.17 | 3.25 ± 0.11 | –
EQEQQQQQIIKIRITLT [RPS20] | 2.77 ± 0.057 | 2.86 ± 0.06 | 3.03 ± 0.043 | 3.09 ± 0.061
FNYNIFMHDPSVFYNIA [SIR2] | 1.46 ± 0.055 | 1.69 ± 0.037 | 1.5 ± 0.073 | 1.76 ± 0.048
VVDRESDIPKTTVQVAE [PRE4] | 2.6 ± 0.11 | 2.99 ± 0.1 | 2.8 ± 0.13 | 3.06 ± 0.076
LEMLKPCVEDGFVIQDR [RPB2] | 3.17 ± 0.086 | 3.29 ± 0.12 | 3.19 ± 0.19 | 3.23 ± 0.077
VKPLESSAKRSKNTAVS [SRP72] | 2.7 ± 0.073 | 2.92 ± 0.11 | 2.21 ± 0.096 | 2.63 ± 0.05
APNTLTNILISPLNTTT [YML103C/NUP188] | 2.23 ± 0.062 | 2.13 ± 0.057 | 2.03 ± 0.086 | 1.82 ± 0.045
GALVDRTQPWSIMPDLY [RPS0A] | 2.71 ± 0.09 | 2.82 ± 0.091 | 2.87 ± 0.062 | 3.11 ± 0.032
KLNKVDKNELQQMIITR [SIR3] | 3.12 ± 0.074 | 3.22 ± 0.07 | 3.28 ± 0.039 | 3.23 ± 0.043
YKALRGMVSHKTARGKA [RPL16A] | 2.45 ± 0.08 | 2.1 ± 0.06 | 2.51 ± 0.096 | 1.84 ± 0.12
NKLRQQAIAKNNPQVVN [SNF5] | 1.54 ± 0.035 | 1.94 ± 0.042 | 1.81 ± 0.049 | 1.65 ± 0.03
KYHNDLIEKEIQPKITE [SMC1] | 3.11 ± 0.13 | 3.05 ± 0.083 | 2.71 ± 0.073 | 3.07 ± 0.059
SPAALKQLASLKKSEEI [YMR153W/NUP53] | 2.2 ± 0.23 | 2.85 ± 0.13 | 2.65 ± 0.17 | 3.37 ± 0.15
RSLVREIAGLSPYERRL [RPL36A] | 2.86 ± 0.13 | 3.5 ± 0.2 | 2.78 ± 0.12 | 2.82 ± 0.11
KEHAPYTDELEEDVYLD [FAS2] | – | 3.48 ± 0.27 | – | 3.04 ± 0.26
SPSYSPTSPAYSPTSPS [RPO21] | 2.93 ± 0.05 | 2.85 ± 0.052 | 2.81 ± 0.048 | 3.08 ± 0.032
LMRSCFYLMVSSLSFGP [YJL039C/NUP192] | 1.64 ± 0.04 | 1.48 ± 0.04 | 1.76 ± 0.075 | 1.19 ± 0.033
ESKSDDNSATSYYELET [RRI1] | 3.25 ± 0.084 | 3.24 ± 0.059 | 3.13 ± 0.067 | 3.19 ± 0.057
QANTEPENITKREASRG [MCD1] | 3.01 ± 0.079 | 2.84 ± 0.073 | 3.03 ± 0.06 | 3.13 ± 0.047
AEEDSLLSGEDLTLDDI [YJL039C/NUP192] | 3.62 ± 0.13 | 3.4 ± 0.11 | – | 3.43 ± 0.13
EIEVDEMEVDAEGEEVE [RPN1] | 3.52 ± 0.084 | 3.68 ± 0.12 | 3.52 ± 0.082 | 3.49 ± 0.067
FPMPYENEEFITFLQTL [ECM29] | 2.34 ± 0.058 | 2.53 ± 0.034 | 2.4 ± 0.047 | 2.39 ± 0.063
AELLNEWHSSLTLKEAE [PUP2] | – | 2.93 ± 0.14 | – | 3.02 ± 0.17
PRVQGFYVPQARNVTFD [GRR1] | 2.99 ± 0.064 | 2.68 ± 0.056 | 2.91 ± 0.038 | 3.02 ± 0.045
SHLFNEYSYVDSNMDSI [RPN4] | 3.26 ± 0.1 | 3.56 ± 0.087 | 2.93 ± 0.1 | 3.06 ± 0.069

Sequence | protein stability index (doa10∆) | protein stability index (pdr5∆) | protein stability index (san1∆) | protein stability index (ubr1∆)
EYAALASLADVMSIESL [FAS1] | 3.07 ± 0.069 | 3.11 ± 0.068 | 3.14 ± 0.069 | 3.07 ± 0.053
NLSSNVNFTEIGGLIPQ [YCS4] | 2.77 ± 0.071 | 2.46 ± 0.073 | 2.49 ± 0.08 | 2.47 ± 0.059
MPLKILLATKQHDSSAN [CSN12] | 2.48 ± 0.076 | 1.97 ± 0.044 | 2.09 ± 0.063 | 2.27 ± 0.044
IRKFFGLSKEDDVRDFV [RPS6A] | 3.43 ± 0.1 | 3.35 ± 0.098 | 3.38 ± 0.12 | 3.32 ± 0.098
KNDEVLGLLLPIAASTD [RPN1] | 2.02 ± 0.055 | 2.3 ± 0.062 | 2.47 ± 0.063 | 2.6 ± 0.071
NKENDNVPSTKFNAAPE [SNF12] | 3.38 ± 0.055 | 3.36 ± 0.068 | 3.17 ± 0.06 | 3.14 ± 0.056
VYLSLLDKDSSQSSAAA [RPN6] | 3 ± 0.16 | 3.21 ± 0.069 | – | 3.03 ± 0.071
VMNKNQETAISVAKLFK [RPT6] | 2.24 ± 0.19 | 1.72 ± 0.19 | – | –
DSEKHIDFAPTSPFGGA [RPS9A] | 2.6 ± 0.06 | 2.65 ± 0.06 | 2.69 ± 0.068 | 2.68 ± 0.041
NEVCLEKENRFEIVDRE [SMC4] | 2.62 ± 0.089 | 2.92 ± 0.11 | 3.1 ± 0.1 | 3.3 ± 0.082
MASGSTTFTKVAAKWNT [PRP8] | 2.58 ± 0.072 | 2.52 ± 0.069 | 2.51 ± 0.084 | 2.93 ± 0.07
DMVMATVKKGKPELRKK [RPL23A] | 3.49 ± 0.15 | 3.35 ± 0.18 | 3.54 ± 0.1 | 3.22 ± 0.11
KSLDAETEAEEDHMLKK [RPO21] | 3.15 ± 0.29 | 2.56 ± 0.21 | 3.19 ± 0.1 | 3.16 ± 0.094
DSNYKWDLSVEDALYLG [PRE2] | 3.34 ± 0.085 | 3.35 ± 0.082 | 3.33 ± 0.07 | 3.39 ± 0.049
TIEQSPRMIELMEFLCV [ECM29] | – | – | 3.11 ± 0.14 | 3.25 ± 0.13
GTHNMYKEIRDVSRVAA [RPL20A] | 1.96 ± 0.089 | 2.22 ± 0.14 | 2.03 ± 0.1 | 2.29 ± 0.083
YKAISAQADKQDISSST [FAS2] | 2.91 ± 0.073 | 2.87 ± 0.058 | 2.3 ± 0.062 | 2.83 ± 0.045
FQYGSRLPTFLKHKSIC [RPP1] | 2.24 ± 0.081 | 1.91 ± 0.055 | 1.68 ± 0.084 | 1.87 ± 0.063
FADKKRDCIDISIFSTP [PRP8] | 3.2 ± 0.076 | 2.99 ± 0.072 | 2.87 ± 0.055 | 3.24 ± 0.068
PAGTSLFGNNAGNTTTG [YGL172W/NUP49] | 2.98 ± 0.16 | 3.24 ± 0.088 | 2.88 ± 0.11 | 3.24 ± 0.084
RVSHSDTNSSKPKNTKE [SIR4] | – | 3.08 ± 0.26 | – | –
GGAKSRGVRPYKHIDAS [RPS19A] | 3.12 ± 0.11 | 3.38 ± 0.14 | 2.93 ± 0.082 | 2.98 ± 0.12
DLSANQRETMKERKLRE [SMC1] | 3.3 ± 0.13 | 3.06 ± 0.096 | 2.96 ± 0.091 | 3.42 ± 0.063
SNNTGNTAFGNSNPTSN [YJL041W/NSP1] | 3.01 ± 0.15 | 3.19 ± 0.13 | 2.66 ± 0.15 | –
PPPAPHNLHPQIGQVPL [SNF5] | 2.96 ± 0.059 | 2.94 ± 0.053 | 2.8 ± 0.045 | 3.01 ± 0.042
